This is an account of results in patent publication US20260217797A1 (Takeda / Millennium, published 2026).

To fix the notation:
T1: MERS-CoV [change] (MERS-CoV, UniProt K9N5Q8 18-725)
T1 sequence: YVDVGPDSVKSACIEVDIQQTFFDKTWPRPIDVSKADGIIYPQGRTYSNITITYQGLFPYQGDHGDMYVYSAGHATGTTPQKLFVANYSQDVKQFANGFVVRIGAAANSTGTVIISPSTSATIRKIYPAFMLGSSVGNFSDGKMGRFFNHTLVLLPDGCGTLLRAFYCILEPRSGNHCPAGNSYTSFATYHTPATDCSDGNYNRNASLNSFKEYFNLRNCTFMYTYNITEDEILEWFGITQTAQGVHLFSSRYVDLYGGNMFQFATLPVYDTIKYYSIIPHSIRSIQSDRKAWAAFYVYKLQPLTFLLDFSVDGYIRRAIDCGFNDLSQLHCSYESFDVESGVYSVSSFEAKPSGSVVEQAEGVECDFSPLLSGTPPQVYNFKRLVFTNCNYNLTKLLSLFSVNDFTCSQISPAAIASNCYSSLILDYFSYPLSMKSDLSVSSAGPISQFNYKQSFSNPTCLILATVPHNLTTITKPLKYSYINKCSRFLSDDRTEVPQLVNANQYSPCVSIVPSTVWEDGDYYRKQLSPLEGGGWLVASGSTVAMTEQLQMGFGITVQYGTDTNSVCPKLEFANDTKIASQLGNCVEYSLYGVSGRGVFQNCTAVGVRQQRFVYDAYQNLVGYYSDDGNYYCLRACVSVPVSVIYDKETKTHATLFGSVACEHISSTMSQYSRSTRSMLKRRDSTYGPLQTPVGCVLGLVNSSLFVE

B1: A-13 (antibody, V domains shown)
VH: QVQLVQSGAEVKKPGASVKVSCKASGYTFTDYYMHWVRQAPGQGLEWMGWINPNSGGTNSAQKFQGRVTMTRDTSINTAYMELSRLRSDDTAVYFCARDSHLAMVRGDFEYWGQGTLVTVSS
VL: QSVLTQPASVSGSPGQSITISCTGTSSDVESYNVVSWYQQHPGKAPKLMIYEVSKRPSGVSHRFSGSKSGNTASLTISGLQAEDESDYYCCSYAGNSTWVFGGGTKLTVL
B2: A-2 (antibody, V domains shown)
VH: EVQLVESGGGLIQPGGSLRLSCAASGFTVSSNYMSWVRQAPGKGLEWVSIIYSGGSTYYADSVKGRFTISRDNSKNTLYLQMNSLRAEDTAVYYCARAPSGEYGDPIYYWGQGTLVTVSS
VL: QSVLTQPPSASASLGASVKLTCTLSSGHSTYTIAWHQQQPEKGPRYLMKLNSDGSHSKGDGIPDRFSGSSSGAERYLTISSLQSEDEADYYCQTWGTGNHWVFGGGTKLTVL
B3: A-1 (antibody, V domains shown)
VH: EVQLVESGGGVVQPGGSLRLSCAASGFAFSTYWMHWVRQAPGKGLVWVSRINGDGSGTNYADSVKGRFTISRDNAKSTLYLQMNSLRTEDTAVYYCTRTAGRGAYDFGRFDPWGQGTLVTVSS
VL: DIVLTQTPLSLPVTPGEPASISCRSSQSLLHSNGYNYLDWYLQKAGQSPQLLVFLGSNRASGVPDRFSGSASGTDFTLKISRVEAEDVGVYYCMQALQIPITFGQGTRLEIK
B4: A-10 (antibody, V domains shown)
VH: QVQLVQSGGGVVQPGRSLRLSCAASGFTFSSYGMHWVRQAPGKGLEWVAVISYDGSNKYYTDSVKGRFTISRDNSKNTLYLQMNSLRAEDTAVYYCAKDLPREVYYDILTGYDNPYYYYGMDVWGQGTTVTVSS
VL: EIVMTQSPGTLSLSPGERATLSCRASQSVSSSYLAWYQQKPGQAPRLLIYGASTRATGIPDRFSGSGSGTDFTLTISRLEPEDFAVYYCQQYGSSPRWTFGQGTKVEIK
B5: A-19 (antibody, V domains shown)
VH: QVQLVQSGAEVKKPGESLKISCKGSGYSFTSYWIAWVRQMPGKGLEWMGIIYPGDSDTSYSPSFQGQVTISADKSISTAYLQWSSLKASDTAMYYCARGPNKYNWFDTWGQGTLVTVSS
VL: not shown
B6: A-11 (antibody, V domains shown)
VH: EVQLVESGAEVKKPGSSVMVSCKASGGTFSRYAISWVRQAPGQGLEWMGGIIPVFGIVHYAQKFQGRVTITADKSTSTAYMELSSLRSEDTAAYYCARDRQQQPSPYYYHGMDVWGQGTTVTVSS
VL: DIRLTQSPSSLSASVGDRVTITCQASQDISNYLNWYQQKPGKAPKLLIYDASNLETGVPTRFSGSGSGTDFTFTISSLQPEDIATYYCQQYDNLPLFGGGTKVEIK

The first assay concerns the target T2, SARS-CoV-2 wild type spike protein (on reporter virus particles) (SARS-CoV-2, UniProt P0DTC2 14-1273). Briefly: cell-based or functional assay.
B1: the “PsV Neut Assay IC50” value stood at 0.155 nM.

As for B2, the “PsV Neut Assay IC50” value is 0.169 nM.

As to B3, the “PsV Neut Assay IC50” value worked out at 0.116 nM.

Turning to B4, the “PsV Neut Assay IC50” value came to 1.29 nM.

Consider B5, for which the “PsV Neut Assay IC50” value worked out at 34.1 nM.

On to B6, for which the “PsV Neut Assay IC50” value is 0.613 nM.

The target in a further assay is SARS-CoV1 Spike [change] (SARS-CoV-1, UniProt P59594 14-667). Briefly: Octet BLI, IgG, monovalent. On the technique in general: Biolayer interferometry detects binding as a change in optical thickness at a sensor tip.
For the molecule B1, the binding result is on record as “no binding”.

B2: the binding result is reported as “no binding”.

Turning to B3, the binding result was “no binding”.

Consider B4, for which the binding result is recorded as “no binding”.

B5: the binding result is “no binding”.

In the case of B6, the binding result is recorded as “no binding”.

The target in the next assay is SARS-CoV-2 Spike S1-His (SARS-CoV-2, UniProt P0DTC2 16-685). Briefly: Octet BLI, IgG, monovalent.
For B1, the Kd (in general, the concentration at which binding is half-saturated) is 4.91 nM.

Turning to B2, the Kd is 14.5 nM.

Consider B3, for which the affinity, expressed as Kd, was 9.6 nM.

In turn, B4 came in with an equilibrium dissociation constant (Kd) of 9.59 nM.

Consider B5, for which the Kd amounted to 1.15 nM.

Molecule B6 showed a dissociation constant Kd of 6.92 nM. Compared with the last molecule, the Kd is about 6-fold higher.

For the next assay, the target named is T1, MERS-CoV [change]. As to the kind of experiment: Octet BLI, IgG, monovalent.
Turning to B1, the binding result is “no binding”.

B2: the binding result is given as “no binding”.

Regarding B3, the binding result was “no binding”.

Take B4: the binding result is “no binding”.

Consider B5, for which the binding result was “no binding”.

Consider B6, for which the binding result was “no binding”.

The next assay concerns the target T2, SARS-CoV-2 wild type spike protein (on …). As to the kind of experiment: cell-based or functional assay. The source holds these as a separate data set.
Take B1: the “PSV IC50” value stood at 0.023 µg/mL.

On to B2, for which the “PSV IC50” value turned out to be 0.025 µg/mL.

As to B3, the “PSV IC50” value was 0.017 µg/mL.

On to B4, for which the “PSV IC50” value came to 0.194 µg/mL.

Turning to B5, the “PSV IC50” value was determined as 5.12 µg/mL.

Consider B6, for which the “PSV IC50” value is 0.092 µg/mL.

The target in the next assay is SARS-CoV-2 S Trimer (SARS-CoV-2, UniProt P0DTC2 16-1213). Briefly: Octet BLI, IgG, avid.
In the case of B1, the Kd came out at 0.843 nM.

In turn, B2 had a Kd of 1.14 nM.

In the case of B3, the Kd was 0.865 nM.

For the molecule B4, the equilibrium dissociation constant (Kd) amounted to 0.854 nM.

On to B5, for which the Kd is 0.987 nM.

As for B6, binding was put at a Kd of 1.29 nM.
